{
  "source": "patent US20210380722A1",
  "about": "“COMPOSITIONS AND METHODS FOR THE TREATMENT OF MAJOR DEPRESSIVE DISORDER” (Snake River Bioscience, Inc., priority 2019, published 2021)",
  "molecules": {"B1": {"name": "recombinant neutral ceramidase: recombinant neutral ceramidase (Asah2, R&D, 3,000 pmol/min/μg), consumes plasma ceramide (protein, UniProt Q9JHE3 1-756, looked up)", "Neutral ceramidase": "MAKRTFSTLEAFLIFLLVIMTVITVALLTLLFVTSGTIENHKDSGNHWFSTTLGSTTTQPPPITQTPNFPSFRNFSGYYIGVGRADCTGQVSDINLMGYGKNGQNARGLLTRLFSRAFILADPDGSNRMAFVSVELCMISQRLRLEVLKRLESKYGSLYRRDNVILSAIHTHSGPAGFFQYTLYILASEGFSNRTFQYIVSGIMKSIDIAHTNLKPGKIFINKGNVANVQINRSPSSYLLNPQSERARYSSNTDKEMLVLKLVDLNGEDLGLISWFAIHPVSMNNSNHFVNSDNMGYAAYLFEQEKNKGYLPGQGPFVAGFASSNLGDVSPNILGPHCVNTGESCDNDKSTCPNGGPSMCMASGPGQDMFESTHIIGRIIYQKAKELYASASQEVTGPVLAAHQWVNMTDVSVQLNATHTVKTCKPALGYSFAAGTIDGVSGLNITQGTTEGDPFWDTLRDQLLGKPSEEIVECQKPKPILLHSGELTIPHPWQPDIVDVQIVTVGSLAIAAIPGELTTMSGRRFREAIKKEFALYGMKDMTVVIAGLSNVYTHYITTYEEYQAQRYEAASTIYGPHTLSAYIQLFRDLAKAIATDTVANMSSGPEPPFFKNLIASLIPNIADRAPIGKHFGDVLQPAKPEYRVGEVVEVIFVGANPKNSAENQTHQTFLTVEKYEDSVADWQIMYNDASWETRFYWHKGILGLSNATIYWHIPDTAYPGIYRIRYFGHNRKQELLKPAVILAFEGISSPFEVVTT"}},
  "key": {"[1]": {"test_system": "healthy mice injected with exosomes from patients with MDD", "assay": "exosomes from blood plasma of MDD patients treated in vitro, injected into healthy mice", "type": "in vivo", "conditions": "human exosomes preincubated with agent, 24 h after injection, FIGS. 5a, 5b", "experimental": "Depressive patients (7 women, 10 men) aged >60 years (mean age=71.1 years, SD=4.7) were recruited at the Psychiatric University Hospital, Basel, Switzerland. […] For comparison, 9 healthy individuals without history of depression (mean age=70.9 years, SD=5.3) were included in the study. The study was approved by the “Ethikkommission der Nordwest—und Zentralschweiz” (EKNZ; No. 2015-148) and all participants provided written informed consent. […]\n(§1) Behavioral testing was performed between 3:00 p.m. and 6:00 p.m. under diffuse indirect room light. […] The time was recorded during which the mice explored a new environment before they began eating. […] The time that the mouse spent in each of the separate compartments was recorded. […] In the coat state test, the appearance of the coat (groomed vs unkempt coat) was scored on the head, neck, back, and ventrum with either a zero for normal status or a 1 for unkempt status. […] After 24 h the mice were again placed in a water-filled cylinder for 6 min, and the time of mobility or immobility during the last 4 min of the second trial was recorded. […]\nExosomes were isolated from 150 μL blood plasma from patients with major depressive disorder (MDD), and from healthy control subjects. […] Behavior (FIG. 5a) and neurogenesis (FIG. 5b) were determined to measure the occurrence of MDD in mice after injection of human exosomes from depressed patients. […]"}, "[2]": {"test_system": "untreated wildtype mice injected with exosomes purified from stressed mice", "assay": "exosomes from stressed mice incubated ex vivo, injected i.v. into untreated wildtype mice", "type": "in vivo", "conditions": "exosomes from stressed mice incubated 60 min ex vivo with agent, within 24 h, FIGS. 3c, 3d", "experimental": "To achieve in vitro neutralization of consumption of ceramide, 125 μL blood plasma or exosomes (purified from 150 μL blood plasma as described below) were incubated with 0.5 μg purified IgM anti-ceramide antibodies, 0.5 μg control IgM or 1 μg recombinant neutral ceramidase.\nTo isolate exosomes from blood plasma, samples were centrifuged at 16,500×g for 20 min. The supernatant was then passed through a 0.22-μm filter and exosomes were harvested by centrifugation twice at 100,000×g for 70 min. The final pellet was resuspended in phosphate-buffered saline (PBS). Exosomes were pelleted by centrifugation at 100,000×g for 70 min, the supernatant was discarded, and the exosomes were resuspended and injected i.v. into healthy mice. […]\nas §1"}, "[3]": {"test_system": "mice stressed with glucocorticosterone or chronic unpredictable environmental stress (CUS)", "assay": "i.v. treatment of stressed mice with anti-ceramide antibodies or neutral ceramidase; behavior and neurogenesis", "type": "in vivo", "conditions": "mice stressed 6 days with glucocorticosterone or CUS"}, "[4]": {"conditions": "Asah2, R&D; cited from earlier work"}, "[5]": {"test_system": "healthy wildtype mice injected with blood plasma from stressed mice", "assay": "blood plasma from stressed mice treated in vitro, injected i.v. into healthy wildtype mice", "type": "in vivo", "conditions": "plasma from stressed mice incubated in vitro with agent, 125 μL i.v. into non-stressed mice, 24 h later; FIGS. 3a, 3b", "experimental": "Corticosterone (Sigma, St. Louis, Mo.) was administered to mice via the drinking water at 120 mg/L for 7 days. In the chronic unpredictable stress model (CUS), the mice were challenged with unpredictable environmental stress for 8 days, i.e., a reversal of the light/dark cycle, 3 h of 45° tilting of the cage twice each week, shaking at 125 rpm, food deprivation for 14 h, predator sounds (15 min) or wet cages (1 h) with two forms of stress per day in a randomized (unpredictable) order. Blood was collected from the heart into heparin-coated needles and tubes immediately after sacrifice by cervical dislocation. Blood plasma was centrifuged at 3500 rpm for 5 min at 4° C. in an Eppendorf centrifuge. […]\nas §1"}},
  "data": [
    {"molecule": "B1", "values": [
      {"measurement": "depressed behavior and reduced neurogenesis induced by exosomes from depressed patients", "setting": "[1]", "result": "prevented their effects on mice"},
      {"measurement": "development of MDD (behavior parameters and neuronal proliferation)", "setting": "[2]", "result": "prevented development of MDD"},
      {"measurement": "neurogenesis in the hippocampus (BrdU-positive cells)", "setting": "[3]; 24 h after first i.v. injection, FIG. 2b", "result": "normalized neurogenesis"},
      {"measurement": "behavioral signs of major depression (light/dark box, latency to feed, time in center, splash test, forced swim test, coat test)", "setting": "[3]; i.v. injection 24 h and 12 h before analysis, FIG. 2a", "result": "abrogated behavioral signs of major depression in stressed mice"},
      {"measurement": "activity of recombinant neutral ceramidase", "setting": "[4]", "result": "3,000 pmol/min/μg"},
      {"measurement": "development of MDD (behavioral changes and neurogenesis in the hippocampus)", "setting": "[5]", "result": "prevented the development of MDD"}
    ]}
  ]
}
